Laboratory results: patent US20250011738A1, “HEAT TOLERANT ALKALINE PHOSPHATASE” (BiomEdit, LLC, priority 2021, published 2025)

Assays:
Type in all cases: biochemical, Paenibacillus lentus
[1] = substrate: Nc1ncnc2c1ncn2[C@@H]1O[C@H](COP(=O)(O)OP(=O)(O)OP(=O)(O)O)[C@@H](O)[C@H]1O; experiment: Phosphate assay (Malachite green) with UDP, ATP and dAMP, APHT ("HT")
Method: (§1) FIG. 9 depicts (A)Vmax (IU/mg) and (B) KM (μM) activity of AP1 (designated “Native”) and APHT (designated “HT”) on UDP, ATP and dAMP. Assays were performed at 40° C. with p substrate concentration 0-5 mM in Tris buffer pH 8. The enzyme concentration was 2 μg/mL.
(§2) FIG. 10 depicts (A)Vmax (IU/mg) and (B) KM (μM) activity of AP1 (designated “Native”) and APHT (designated “HT”) with UDP, ATP and dAMP. Assays were performed at 50° C. with p substrate concentration 0-5 mM in DEA buffer pH 10. The enzyme concentration was 2 μg/mL.
(§3) To further improve the thermal stability, a set of synthetic alkaline phosphatase genes where each amino acid was mutated to other possibilities one at a time was constructed and evaluated. Numerous single amino acids changes improving heat tolerance were combined and incorporated into a mutated alkaline phosphatase version yielding the alkaline phosphatase heat tolerant molecule designated APHT. […] (FIG. 4), and has a total of 16 amino acid changes from the original AP1 sequence (see FIG. 5A and B). In FIG. 5A, the AP1 with a serine mutation is designated as “AP Native” and is depicted in sequence with a leader sequence ASGFYVSGT (SEQ ID NO:13). The AP1 with leader sequence ASGFYVSGT is provided in SEQ ID NO:14). The APHT polypeptide with leader sequence ASGFYVSGT is provided in SEQ ID NO:15). In FIG. 5B, the AP1 with a serine mutation and without any leader sequence or leader peptide amino acids (SEQ ID NO:4) is aligned and compared with the APHT without any leader sequence or leader peptide amino acids (SEQ ID NO:1). The 16 amino acid changes in APHT are evident. The APHT amino acid sequence (excluding and without any leader sequence and starting with amino acids ESSN) is 97% identical to the sequence of AP1 (excluding and without any leader sequence and starting with amino acids ESSN).
(§4) The APHT sequence (SEQ ID NO: 1) is provided below with the amino acid mutations versus the AP1 sequence underlined and in bold.
(§5) 5. Phosphate Assay with Biological Substrates UDP, ATP, and dAMP (Native and HT)
(§6) Phosphatase activity with UDP, ATP and dAMP was assessed by measuring the release of […] with the Malachite green reagent (Sigma) at 40° C. and 50° C. Assay consisted of nucleotide phosphate in the concentration range 0-5 mM, 2 μg/mL AP in a final volume of 100 μL. The reaction was initiated in a 96-well microplate with the addition of enzyme and incubated for 5 min. After this time, 10 μL of reaction were mixed with 90 μL of water 25 μL of Malachite green solution. The microplate was shaken for 20 min at 25° C. and absorption was recorded at 620 nm. As standard pyrophosphate solution in water was used in the concentration range of 0-40 μM. Each experiment was done by triplicated at least.

[2] = substrate: Nc1ncnc2c1ncn2[C@H]1C[C@H](O)[C@@H](COP(=O)(O)O)O1; experiment: as above
Method: as §1, §2, §3, §4, §5, §6

[3] = substrate: O=c1ccn([C@@H]2O[C@H](COP(=O)(O)OP(=O)(O)O)[C@@H](O)[C@H]2O)c(=O)[nH]1; experiment: as above
Method: as §1, §2, §3, §4, §5, §6

[4] = substrate: Nc1ncnc2c1ncn2[C@@H]1O[C@H](COP(=O)(O)OP(=O)(O)OP(=O)(O)O)[C@@H](O)[C@H]1O; experiment: Dephosphorylation of substrates UDP, ATP and dAMP (Example 4, Table 11); conditions: other: Table 11; conditions not given
Method: (§7) The inorganic phosphorous release (μM) from each of these sources by the heat tolerant HTAP was determined and is shown in FIG. 12. […] The inorganic phosphorous release (μM) was also assessed from the metabolically relevant compounds phosphocholine, phosphocreatine and phytic acid and compared with native AP. The heat tolerant HTAP was comparably active vs native AP in Pi release from each of compounds phosphocholine, phosphocreatine and phytic acid (data not shown).
(§8) Dephosphorylation of substrates UDP, ATP and dAMP was also assessed and determined.

[5] = substrate: Nc1ncnc2c1ncn2[C@H]1C[C@H](O)[C@@H](COP(=O)(O)O)O1; experiment: as above; conditions: other: Table 11; conditions not given
Method: as §7, §8

[6] = substrate: O=c1ccn([C@@H]2O[C@H](COP(=O)(O)OP(=O)(O)O)[C@@H](O)[C@H]2O)c(=O)[nH]1; experiment: as above; conditions: other: Table 11; conditions not given
Method: as §7, §8

[7] = substrate: Nc1ncnc2c1ncn2[C@@H]1O[C@H](COP(=O)(O)OP(=O)(O)OP(=O)(O)O)[C@@H](O)[C@H]1O; experiment: Phosphate assay (Malachite green) with UDP, ATP and dAMP, AP1 ("Native")
Method: as §1, §2
(§9) Enzymes, including lysozyme and alkaline phosphatase, are recognized as disruptors of bacterial debris and inflammation. These enzymes reduce inflammation, including by lysing the peptidoglycans and LPS of bacteria, thus deactivating them and thereby bypassing the inflammatory response. An alkaline phosphatase was initially identified and modified from Paenibacillus lentus bacteria and expressed for application and use as a farm animal feed additive. This modified alkaline phosphatase is characterized by having a serine (S) replacement for an aspartic acid (D) in the native bacterial alkaline phosphatase protein sequence and is designated herein as AP1. […] The AP1 alkaline phosphate is described including in U.S. Pat. No. 9,326,535 issued May 3, 2016. The sequence of AP1 is as follows (the serine is in bold and underlined) (SEQ ID NO:4):
as §5, §6

[8] = substrate: Nc1ncnc2c1ncn2[C@H]1C[C@H](O)[C@@H](COP(=O)(O)O)O1; experiment: as above
Method: as §1, §2, §9, §5, §6

[9] = substrate: O=c1ccn([C@@H]2O[C@H](COP(=O)(O)OP(=O)(O)O)[C@@H](O)[C@H]2O)c(=O)[nH]1; experiment: as above
Method: as §1, §2, §9, §5, §6

[10] = other: 40° C., Tris buffer pH 8, enzyme 2 μg/mL, pH 8.0, 40.0 °C
[11] = other: 50° C., DEA buffer pH 10, enzyme 2 μg/mL, pH 10.0, 50.0 °C

B1: Paenibacillus lentus alkaline phosphatase AP1 heat tolerant mutant APHT (designated "HT"), 16 amino acid changes from AP1, SEQ ID NO: 1 (Paenibacillus lentus; … (protein)
chain: ESSNGQSKNLIVLIGDGMGPAQVSAARYFQQHINNINSLNLDPYYVGQATTYADRGEDGGHIVSGIITSSAAAGTAIATGNKTNNAAISVSNEDVSRPFASVHEAAELSGKSTGLVTTARITHATPAVYGSHVRNRDNENAIAFQYLDSGIDVLLGGGESFFVTNEEKGKRNDKNLLPEFEAKGYKVVKNGQSLKSLSAKDAKVLGLFGGSHIPYVPDRSDETPSLAEMTSKALEILSTNENGFAIMIEGGRIDHAAHANDFPTMVQEMLAFDEAFKVAIDFAKKDGNTSVVVTADHETGGLSLGRDNIYELNVDLWNKQKNSSESLVSALNEAKTIADVKKIVSDNTWITDLTNEEAQYILDGDGSSYKREGGYNAVISKRLLVGWSGHGHSAVDVGVWAYGPIADKVKGQIDNTRIATASAEVLGVDLKKATADLQSKYLYPKFKINRNKEVLFPAKPLAEALGGKYQAANGTATISGMSGTITVDLNAKKAKLSGNSSEITIDVDNDVLYLPLTAFSQITGQTLKWDALSERIMLK
- Km [1, 10]: 97 µM
- Vmax [1, 10]: 358 IU/mg
- Km [1, 11]: 283 µM
- Vmax [1, 11]: 380 IU/mg
- Km [2, 10]: 165 µM
- Vmax [2, 10]: 262 IU/mg
- Km [2, 11]: 623 µM
- Vmax [2, 11]: 472 IU/mg
- Km [3, 10]: 93 µM
- Vmax [3, 10]: 631 IU/mg
- Km [3, 11]: 121 µM
- Vmax [3, 11]: 521 IU/mg

B2: Paenibacillus lentus alkaline phosphatase AP1 heat tolerant mutant APHT (HTAP), SEQ ID NO: 1 (Paenibacillus lentus; … (protein)
chain: ESSNGQSKNLIVLIGDGMGPAQVSAARYFQQHINNINSLNLDPYYVGQATTYADRGEDGGHIVSGIITSSAAAGTAIATGNKTNNAAISVSNEDVSRPFASVHEAAELSGKSTGLVTTARITHATPAVYGSHVRNRDNENAIAFQYLDSGIDVLLGGGESFFVTNEEKGKRNDKNLLPEFEAKGYKVVKNGQSLKSLSAKDAKVLGLFGGSHIPYVPDRSDETPSLAEMTSKALEILSTNENGFAIMIEGGRIDHAAHANDFPTMVQEMLAFDEAFKVAIDFAKKDGNTSVVVTADHETGGLSLGRDNIYELNVDLWNKQKNSSESLVSALNEAKTIADVKKIVSDNTWITDLTNEEAQYILDGDGSSYKREGGYNAVISKRLLVGWSGHGHSAVDVGVWAYGPIADKVKGQIDNTRIATASAEVLGVDLKKATADLQSKYLYPKFKINRNKEVLFPAKPLAEALGGKYQAANGTATISGMSGTITVDLNAKKAKLSGNSSEITIDVDNDVLYLPLTAFSQITGQTLKWDALSERIMLK
- Km [4]: 399 ± 68 µM
- kcat [4]: 0.1 ± 0.00333 s⁻¹
- Km [5]: 242 ± 27 µM
- kcat [5]: 0.132 s⁻¹
- Km [6]: 166 ± 14 µM
- kcat [6]: 0.125 ± 0.00167 s⁻¹

B3: Paenibacillus lentus alkaline phosphatase AP1 (designated "Native"), serine (S) replacement for an aspartic acid (D), SEQ ID NO: 4 (Paenibacillus lentus; D102S) (protein)
chain: ESSNGQSKNLIVLIGDGMGPAQVSAARYFQQHKNNINSLNLDPYYVGQATTYADRGEDGGHIVSGIVTSSASAGTAFATGNKTYNAAISVSNEDVSRPFASVLEAAELSGKSTGLVTTARITHATPAVYASHVRSRDNENAIAFQYLDSGIDVLLGGGESFFVTKEEKGKRNDKNLLPEFEAKGYKVVKTGQSLKSLSAKDAKVLGLFGGSHIAYVPDRSDETPSLAEMTSKALEILSTNENGFAIMIEGGRIDHAGHANDFPTMVQEALDFDEAFKVAIDFAKKDGNTSVVVTADHETGGLSLSRDNIYELNVDLWNKQKNSSESLVSALNEAKTIADVKKIVSDNTWITDLTNEEAQYILDGDGSSYKREGGYNAVISKRLLVGWSGHGHSAVDVGVWAYGPIADKVKGQIDNTRIATASAEVLGVDLKKATADLQSKYLYPKFKINRNKEVLFPAKPLAEALGGKYQAANGTATISGMSGTITVDLNAKKAKLSGNSSSITIDVDNDVLYLPLTAFSQITGQTLKWDALSERIMLK
- Km [7, 10]: 110 µM
- Vmax [7, 10]: 336 IU/mg
- Km [7, 11]: 210 µM
- Vmax [7, 11]: 578 IU/mg
- Km [8, 10]: 113 µM
- Vmax [8, 10]: 356 IU/mg
- Km [8, 11]: 199 µM
- Vmax [8, 11]: 730 IU/mg
- Km [9, 10]: 74 µM
- Vmax [9, 10]: 447 IU/mg
- Km [9, 11]: 83 µM
- Vmax [9, 11]: 608 IU/mg
